Consider two molecules from patent US9340788B2 (priority 2007, dated 2016).

“Also recorded” adds a separate entry of the source.

In data set [1] the test system is HCMV. Put plainly: Viral attachment and internalization assay (pp65 immunofluorescence). It counts as cell-based, Human cytomegalovirus. Particulars: HEL. The procedure: (A) HEL cells were pretreated with PBS (20 min 4° C.), IMC-3G3 (2 h, 37° C., 10 μg/ml), or PDGF-AA (20 min, 4° C., 10 ng/ml) prior to infection with HCMV (MOI of 1, 4° C., 1 h). Cells were returned to 37° C. for 30 minutes, and processed for pp65^HCMV and PDGFRα double immunofluorescence. […] All conditions were assayed in triplicate cultures. One hundred cells in 4 low magnification fields were counted. Bars represent SD.
Viral Attachment and Internalization Assays. Mouse fibroblasts and HEL cells (72 hours following siRNA transfections) were incubated with HCMV (MOI of 0.5) or mock treated for 1 hour at 4° C., after which cells were returned to 37° C. for 15, 30, or 60 min. Cells were fixed using methanol (20 min) and processed for pp65 immunofluorescence. Four low power fields were counted for each condition and pp65 positive were recorded for each 100 cells. Internalization assays were repeated twice.

The test system of data set [2] is HCMV. Description: Measurements of infectious virus production. The class given is cell-based, Human cytomegalovirus. Particulars: for infectious virus production (secondary infection): supernatants of siRNA treated HEL harvested 6 dpi used to infect naïve HEL, IE1 staining. The procedure:
HEL cells were transfected with PDGFRα siRNA (smart pool, Dharmacon) or non-targeting control siRNA (Dharmacon) for 48-60 hours when maximum protein knockdown is achieved (panels a and b. Also see FIG. 3d). Cells were then infected with Towne, AD169, TR, or CMV-GFP strains of HCMV for 1 hour, washed and returned to 37° C. in complete growth media. Supernatants obtained from these cultures were used in subsequent assays measuring production of infectious virus as described below. One set of cultures (panels a and b) were used 12 hours post-infection (12 hpi) to measure the expression level of PDGFRα and IE1 by immunofluorescence. […] Cultures infected with supernatants from GFP-CMV treated cells were monitored daily under the fluorescence microscope. Over 40% of the control siRNA treated cells expressed CMV-GFP 1 day post infection (c, 1 dpi) and this number increased to 100% by day 6 (c, 6 dpi). Note the appearance of “plaques”-like groups of cells in control siRNA transfected cells (c, 3 and 6 dpi). […] To measure infectious virus production, supernatants from both control and PDGFRα siRNA treated cultures were harvested at 6 dpi and used to infect naïve HEL cells (secondary infection). […] These experiments were repeated twice.
Measurements of Infectious Virus Production. HEL cells (where indicated were treated with siRNA) were infected with HCMV Towne or CMV-GFP for 1 h, washed and grown for 6 days at 37° C. A duplicate set of cultures was analyzed by immunofluorescence at 12 hours post infection (hpi) to assess percent of IE1 positive cells, as a measure of “primary infection”. Six days post infection supernatant from these cells were centrifuged to exclude cell debris and used to infect naïve HEL cultures as described above. 12 hpi cells were stained for IE1 and IE1 positive cells were counted amongst a total of 100 cells/low magnification microscopic field, 4 fields/condition. These counts were used to determine the level of “secondary infection”—i.e., infectious virus production from the primary infected cells. Where indicated, CMV-GFP infected cells were monitored daily under fluorescence microscope. Each condition was assayed in triplicate.

B1: p110α siRNA: mixture of 4 RNAi oligos, "smart pool" from Dharmacon, against PI3K p110α, SEQ ID NO: 5-8 (nucleic acid)
chain 1: GCGAAAUUCUCACACUAUU
chain 2: GUGGUAAAGUUCCCAGAUA
chain 3: GCUUAGAGUUGGAGUUUGA
chain 4: GACCCUAGCCUUAGAUAAA
modifications: pool of four siRNAs, further chemistry not given here
Turning to B1, in the data set with HCMV [1] (p110α knockdown), the viral entry entry was “allowed”. For the same molecule, the “decrease in infectious virus production” value in the data set on HCMV [2] (HEL treated with p110α siRNA, secondary infection, insignificant) was 10%. In the data set on HCMV [2], the “infectious virus production (secondary infection)” value was “lower levels than controls”.

B2: PDGFRα siRNA: "smart Pool" siRNA to hPDGFRα (Dharmacon), SEQ ID NO: 1-4 (nucleic acid)
chain 1: CGAGACUCCUGUAACCUUAUU
chain 2: GAGCUUCACCUAUCAAGUUUU
chain 3: GACAGUGGCCAUUAUACUAUU
chain 4: GAAUAGGGAUAGCUUCCUGUU
modifications: pool of four siRNAs, further chemistry not given here
Regarding B2, the “viral internalization (nuclear pp65)” value in the data set on HCMV [1] (siRNA knockdown, 60 min after shifting to 37° C., vs non-targeting control siRNA, p<0.001) was “near complete blockade”. Moreover, the CMV-GFP expression entry with HCMV [2] (siRNA treated HEL cells monitored daily under fluorescence microscope, 1-6 dpi) is listed as “did not express CMV-GFP”. Moreover, the “infectious virus production (secondary infection)” value in the data set on HCMV [2] is reported as “Near complete inhibition; also recorded: did not produce any infectious virus”.
